Test results published in paper PMC8191795 (Nucleic Acids Research, 2020).
“And” between values parts separate entries of the source, which are not always exact repeats. Equal values may be shown once. Read-outs that look alike come from different tables or passages of the source.

Tests used:
[1] = molecular target: his-tagged V. harveyi RNAP alpha subunit (Vibrio harveyi, UniProt A0A0B4IMU9 1-330); assay: BLI
SAXS [2] = molecular target: the molecule itself; assay: SAXS
SAXS [3] = molecular target: the molecule itself; assay: SAXS; remark: listed apart in the source
SmcR N142D = molecular target: T1, SmcR N142D (Vibrio vulnificus, UniProt Q9L8G8 1-205, N142D); assay: EMSA
T1 sequence: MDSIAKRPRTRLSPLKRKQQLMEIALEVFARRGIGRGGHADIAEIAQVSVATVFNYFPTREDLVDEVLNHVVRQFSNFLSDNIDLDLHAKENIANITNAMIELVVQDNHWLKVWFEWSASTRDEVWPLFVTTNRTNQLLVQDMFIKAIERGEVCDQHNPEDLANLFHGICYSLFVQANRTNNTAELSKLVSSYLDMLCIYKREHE

SmcR S76A = molecular target: T2, SmcR S76A (Vibrio vulnificus, UniProt Q9L8G8 1-205, S76A); assay: EMSA
T2 sequence: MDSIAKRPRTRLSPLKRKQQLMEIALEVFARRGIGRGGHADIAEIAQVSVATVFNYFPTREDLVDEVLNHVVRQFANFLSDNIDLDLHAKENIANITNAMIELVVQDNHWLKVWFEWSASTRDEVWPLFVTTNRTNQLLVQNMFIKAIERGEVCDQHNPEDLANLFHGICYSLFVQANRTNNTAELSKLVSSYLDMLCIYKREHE

SmcR WT = molecular target: T3, SmcR WT (Vibrio vulnificus, UniProt Q9L8G8 1-205); assay: EMSA
T3 sequence: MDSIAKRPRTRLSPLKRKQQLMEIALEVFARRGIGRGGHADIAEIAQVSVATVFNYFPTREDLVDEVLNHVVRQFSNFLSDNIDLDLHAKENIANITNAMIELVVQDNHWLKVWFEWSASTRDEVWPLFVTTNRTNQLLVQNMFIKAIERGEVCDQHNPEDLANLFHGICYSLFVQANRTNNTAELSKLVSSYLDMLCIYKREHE

SmcR L139R = molecular target: T4, SmcR L139R (Vibrio vulnificus, UniProt Q9L8G8 1-205, L139R); assay: EMSA
T4 sequence: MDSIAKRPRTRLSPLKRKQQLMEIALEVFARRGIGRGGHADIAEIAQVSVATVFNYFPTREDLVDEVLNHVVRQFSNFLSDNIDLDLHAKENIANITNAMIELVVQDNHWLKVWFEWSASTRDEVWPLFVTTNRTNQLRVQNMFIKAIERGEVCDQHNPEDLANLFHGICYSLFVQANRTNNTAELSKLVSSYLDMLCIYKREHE

SmcR N55I = molecular target: T5, SmcR N55I (Vibrio vulnificus, UniProt Q9L8G8 1-205, N55I); assay: EMSA
T5 sequence: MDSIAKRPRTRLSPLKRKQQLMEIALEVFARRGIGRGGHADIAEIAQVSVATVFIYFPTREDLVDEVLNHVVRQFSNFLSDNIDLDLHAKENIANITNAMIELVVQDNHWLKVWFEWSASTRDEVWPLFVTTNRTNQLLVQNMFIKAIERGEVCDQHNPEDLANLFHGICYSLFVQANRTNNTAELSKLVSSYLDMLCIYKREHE

B1: SmcR wild-type, untagged (Vibrio vulnificus) (natural protein)
chain: MDSIAKRPRTRLSPLKRKQQLMEIALEVFARRGIGRGGHADIAEIAQVSVATVFNYFPTREDLVDEVLNHVVRQFSNFLSDNIDLDLHAKENIANITNAMIELVVQDNHWLKVWFEWSASTRDEVWPLFVTTNRTNQLLVQNMFIKAIERGEVCDQHNPEDLANLFHGICYSLFVQANRTNNTAELSKLVSSYLDMLCIYKREHE
- Kd [1]: 142 nM

B2: SmcR N55I, untagged (Vibrio vulnificus) (natural protein)
chain: MDSIAKRPRTRLSPLKRKQQLMEIALEVFARRGIGRGGHADIAEIAQVSVATVFIYFPTREDLVDEVLNHVVRQFSNFLSDNIDLDLHAKENIANITNAMIELVVQDNHWLKVWFEWSASTRDEVWPLFVTTNRTNQLLVQNMFIKAIERGEVCDQHNPEDLANLFHGICYSLFVQANRTNNTAELSKLVSSYLDMLCIYKREHE
- Kd [1]: 160 nM
- stoichiometry N (SAXS [2]): 2 and 4

B3: SmcR wild-type, 6Xhis-tagged (Vibrio vulnificus) (natural protein)
chain: MDSIAKRPRTRLSPLKRKQQLMEIALEVFARRGIGRGGHADIAEIAQVSVATVFNYFPTREDLVDEVLNHVVRQFSNFLSDNIDLDLHAKENIANITNAMIELVVQDNHWLKVWFEWSASTRDEVWPLFVTTNRTNQLLVQNMFIKAIERGEVCDQHNPEDLANLFHGICYSLFVQANRTNNTAELSKLVSSYLDMLCIYKREHE
- stoichiometry N (SAXS [3]): 2 and 4

B4: PvvpE (AB324/AB325) (dsDNA)
DNA 1: ATAAATCAAATTTGTAACTTTATTTCTGAGATGACTGTCCCATTTATCTTATTGATAAATCTGCGTAAAAAAGAAAAAGCACAATTTTATTACTAGTGTTT
DNA 2: AAACACTAGTAATAAAATTGTGCTTTTTCTTTTTTACGCAGATTTATCAATAAGATAAATGGGACAGTCATCTCAGAAATAAAGTTACAAATTTGATTTAT
- Kd (SmcR N142D): 6.68 nM
- Kd (SmcR S76A): 0.363 nM
- Kd (SmcR WT): 2.18 nM
- Kd (SmcR L139R): 3.53 nM
- Kd (SmcR N55I): 142 nM

B5: PluxC site E T4A (JDN44/JDN45) (dsDNA)
DNA 1: TCTAATTATAGTTTGATTTATTAATAATTAGT
DNA 2: ACTAATTATTAATAAATCAAACTATAATTAGA
- Kd (SmcR WT): 1.53 nM
- Kd (SmcR N55I): 13.4 nM

B6: PluxC site E A17T (JDN46/JDN47) (dsDNA)
DNA 1: TCTAATTATTGTTTGATTTATTTATAATTAGT
DNA 2: ACTAATTATAAATAAATCAAACAATAATTAGA
- Kd (SmcR WT): 2.71 nM
- Kd (SmcR N55I): 44.6 nM

B7: PluxC site E T4A,A17T (JCV1107/JCV1108) (dsDNA)
DNA 1: TCTAATTATTGTTTGATTTATTAATAATTAGT
DNA 2: ACTAATTATTAATAAATCAAACAATAATTAGA
- Kd (SmcR WT): 2.04 nM
- Kd (SmcR N55I): 1.91 nM

B8: PvvpM (AB316/AB317) (dsDNA)
DNA 1: ACACTTATCTTTAGTGACAAACTCATAAATAGCAAGTTCTCACACGGTC
DNA 2: GACCGTGTGAGAACTTGCTATTTATGAGTTTGTCACTAAAGATAAGTGT
- Kd (SmcR N142D): 0.568 nM
- Kd (SmcR S76A): 0.167 nM
- Kd (SmcR WT): 0.143 nM
- Kd (SmcR L139R): 0.322 nM
- Kd (SmcR N55I): 0.266 nM
